Data reported in the DeepSol protein solubility set.

Assay: soluble on expression in E. coli; label from the status in PepcDB or PDB records

| Sequence | soluble on expression in E. coli |
| --- | --- |
| MKKAKSRIAILGTGGTIAGFIDSTIATTGYAAGAIDIDVLIKAVPQIRDLADISWEQIANIDSSNMCDEIWLRLAKKIAKLFAEGIDGVVITHGTDTMEETAYFLNLTIKSDKPVVLVGAMRPSTAISADGPKNLYNAVALVVNKEAKNKGVMVAINDKILSARGVVKTHSLNVDAFSSPDFGDLGYIVDGKVFFYNNVIKAHTKNAPFDVSKLTSLPKVDILYSYSNDGSGVAAKALFEHGTKGIVVAGSGAGSIHKNQKDVLKELLKKGLKVVVSSRVVAGCVAVSDSDEKLGFISAEDLNPQKARVLLMLALTKTSDPKKIQEYFLKY | soluble |
| MKKATCLTDDQRWQSVLARDPNADGEFVFAVRTTGIFCRPSCRARHALRENVSFYANASEALAAGFRPCKRCQPDKANPRQHRLDKITHACR | soluble |
| MKKDTDCTEILVGKTASMDGSTIVARNEDGYGPINPIKFIVHEAHDQTNASYTSVTTGVTVPLPDHAYRYTATPQADQSDGQYEEAGINELNVGMSATETTATNARVLGYDPLVHDGVDEEAMVTLVLPYIKSAKEGVQRLGALIEKYGTGESNSIAFNDHDDIWLFETAGGHHWGAVRMPEDTYAIVPNQTVVQEMDLNDTDNFLGASDLVDFVEKYHLNPTPGHFNFREIFGTQSEADAYYNTPRTWYGQKLFNPEIEQNPTDQNMPLFRQPSKKLAIEDVQFFLSSHYNGTPYDPFGTFASGNAREQTRYRSIAMDRNQCSSILQIRNDVPAKQAAIQWIALGFFAYAPYVPFFTNINDTPIDYRNTTSTVSVDNVYWLSKTLSVLIEPHWHEFAETVNAYRDECQSYARGRVAATDAAIAGNPTDFLTKANSETAAEISNRTHALFDTLVKQGLLLSKTTWEKGQNLLEHHHHHH | not soluble |
| MKKFTCVQDIGDLKSALAESFEIKKDRFKYVELGRNKTLLMIFFNSSLRTRLSTQKAALNLGMNVIVLDINQGAWKLETERGVIMDGDKPEHLLEAIPVMGCYCDIIGVRSFARFENREYDYNEVIINQFIQHSGRPVFSMEAATRHPLQSFADLITIEEYKKTARPKVVMTWAPHPRPLPQAVPNSFAEWMNATDYEFVITHPEGYELDPKFVGNARVEYDQMKAFEGADFIYAKNWAAYTGDNYGQILSTDRNWTVGDRQMAVTNNAYFMHCLPVRRNMIVTDDVIESPQSIVIPEAANREISATVVLKRLLENLPHHHHHH | soluble |
| MKKGCKYGTHRVIEPAGVLPQPAKKISNDMEIFSNEILIDVIALNIDSASFTQIEEEAGHDVEKVKAKIKEIVAERGKMQNPVTGSGGMLIGTVEKIGDDLVGKTDLKVGDKIATLVSLSLTPLRIDEIINIKPEIDRVEIKGKAILFESGIYAVLPKDMPENLALAALDVAGAPAQVAKLVKPCQSVAILGSAGKSGMLCAYEAVKRVGPTGKVIGVVRNDKEKALLQRVSDKVKIVIADATKPMDVLHAVLEANDAKEVDVAINCVNVPNTEMSTILPVKEFGIAYFFSMATGFSKAALGAEGVGKDITMIVGNGYTVDHAAITLEELRESAVLREIFNEIYLLEHHHHHH | soluble |
| MKKIGIIGGGQLGKMMTLEAKKMGFYVIVLDPTPRSPAGQVADEQIVAGFFDSERIEDLVKGSDVTTYDLEHIDVQTLKKLYNEGYKIHPSPYTLEIIQDKFVQKEFLKKNGIPVPEYKLVKDLESDVREFGFPVVQKARKGGYDGRGVFIIKNEKDLENAIKGETYLEEFVEIEKELAVMVARNEKGEIACYPVVEMYFDEDANICDTVIAPARIEEKYSKIAREIATSVVEALEGVGIFGIEMFLTKQGEILVNEIAPRPHNSGHYTIEACVTSQFEQHIRAIMNLPLGSTELLIPAVMVNLLGEEGYYGKPALIGLEEALAIEGLSLHFYGKKETRPYRKMGHFTVVDRDVERALEKALRAKKILKVVSEEGAMCQG | soluble |
| MKKIMTIFGTRPEAIKMAPLVKALEQEKMLEPIVVVTAQHREMLDSVLSTFEIKPKYDLNIMKSGQTLSEITSKSITQLEQVIQLEKPDMVLVHGDTMTTFAGGLAAFYNQVPIGHVEAGLRSYDKYSPFPEEVNRQLVGVLADLHFAPTKNAASHLLSEGKYSESVVVTGNTAIDAMKYTVDDNYKSNIMDKYHDKKFILMTAHRRENIGKPMENIFKAVRRLIDEYTDLALVYPMHKNPKVREVAQKILGSHDRIELIEPLDVVDFHNFAKKSYFILTDSGGIQEEAPSFNKPVLVLRSVTERPEGVEAGTLKVIGTNKQNVYQAAKELIDDERLYHQMSEASNPYGDGFASERIVNHIKYYLNLITEKPSDF | not soluble |
| MKKIVTATIATAGLATIAFAGHDAQAAEQNNNGYNSNDAQSYSYTYTIDAQGNYHYTWTGNWNPSQLTQNNTYYYNNYNTYSYNNASYNNYYNHSYQYNNYTNNSQTATNNYYTGGSGASYSTTSNNVHVTTTAAPSSNGRSISNGYASGSNLYTSGQCTYYVFDRVGGKIGSTWGNASNWANAAASSGYTVNNTPKVGAIMQTTQGYYGHVAYVEGVNSNGSVRVSEMNYGHGAGVVTSRTISANQAGSYNFIHLEHHHHHH | not soluble |
| MKKKKLFLGTIISCVVLALSACGSSDNVVTSKVGNITEKELSKELRQKYGESTLYQMVLSKALLDKYKVSDEEAKKQVEEAKDKMGDNFKSTLEQVGLKNEDELKEKMKPEIAFEKAIKATVTEKDVKDNYKPEMKVSHILVKDEKTAKEVKEKVNNGEDFAALAKQYSEDTGSKEQGGEITGFAPGQTVKEFEEAAYKLDAGQVSEPVKTTYGYHIIKVTDKKELKPFDEVKDSIRKDIEQQRLQDTTGKWKQQVVNELLKDADIKVNDKEFKNTFEFLEKK | not soluble |
| MKKLAVLFMCAAMLASCDFKGGSKDLKAENDSLLMELTQRNAELDDMMGTFNEVQEGFRKINAAESRVDLQRGTITENSASAKQQIASDIEFISKQMEENKAQIAKLEAQLKNSKYNSTQMKKAVEALTAELKAKQQRIEELQTELASKNIRIQELDAAVSDLSAAKESLAAENEAKAKTVAEQDKSLNAAWFVFGTKSELKAQKILQSGDVLKSADFNKDYFTQIDIRTTKEIKLYSKRAELLTTHPTGSYELVKDDKGQLTLKITNPAEFWSVSRYLVIQVK | not soluble |
| MKKLFFIMAMSVCAFTAQAQTTSGIRVGLNMTSATGKYNDLMADQDYNNKSYMGYSIHYFIDVPVIGNFSIQPAVGLSMKGITYEYDKFTTKKSHRLDLDSYKKYDVTESRGTSVTQKHNLGYLDVPILFAYALPLSESFRVQLGVGPYFSYGLFGKFKYESDKYLTVSPDKYGENKHTITKDDYPSFGKNDDADDPKGNINRFDWGIAVQGSIYWKRLFLNVAYQKGLKSANITDEKNEGKDKLALSNLSLGLGFIF | not soluble |
| MKKRIIPIFVPHKGCPHDCIFCNQKKITGVSTDVTSEDARNIIEECLETIDKDADVEIAFFGGSFTAIDIDIQKSLLSVAKEYVEKGLVKDIRMSTRPDCIDEDILSMLKEYKTSIIELGVQSLDEKVLLDSIRGHQSEIVYKSSKMIKNSGIKLGLQMMIGLPADTEEKCIFTAKKFVELKPDCVRVYPTLVVKDTGLEKLMEQNKYNPFTLEESVNIVKKVLVLFYVNNINVIRVGLQATDDIQIGKAVLAGPYHPAFRELVEADMIKDYLEFVILQNKNIKQMLVKSNKKNISKIIGNKKTNVKYMEEKFGVLLKTQESDLDINQLEIVLDGKSLISANMRDIHRKLYDIYDL | not soluble |
| MKKSLGARTLAYPTPLFLVGTYDRDSRPNIMAAAWAGICCSQPPSIAVSLRKATYTYRSITERGAFTISIPSRAYVRHADYAGIYSGENEDKFASLGLTPVPGEHVDAPYVGEFPMAIELKLIHQIEIGLHTQFIGEIMDVKVDESCLRDDGLPDINKVDPVIFAPVSREYYAVGEFLAKAFSAGKGLRS | soluble |
| MKKTFEKVYHLKLSIKGITPQIWRRIQVPENYTFLDLHKAIQAVMDWEDYHLHEFEMVNPKTGMLDKIGAEGDDFDAFGGPLVSEKKAKLSDYFTLENKEALYTYDFGDNWQVKVRLEKILPRKEGVEYPICTAGKRAAVPEDSGGVWGYEEMLEVLKDSEHEEYEDTVLWLGDDFDPEYFDPKDVSF | soluble |
| MKKVELLAPAGNLEKLKMAVLYGADAVYLGGEEFSLRAYAENFTLDELKAGVEFAHSKGKKVYVTINIFPHNDDLKKIPEYIKEVAGIGVDAIILSDPGILSIVKEIAPDMEIHLSTQANNTNFMSARFWHNHGVKRIILARELSLEEIREIREKTPDSLELEVFVHGAMCISYSGRCLLSNYMAGRDSNRGLCAHPCRWKYYLMEEKRPGEYYPVYENERGTFIFNSRDLCMIEHIPELVESGVSSFKIEGRMKSSFYVATVVKAYREAIDAYYEDKDNYKFDPRLLEEVCKVSHREFTTGFFFNKPGPKDQIYATSSYIREYDFVGVVQKYDKATKIATVEQRNRMYKGEEIEVVNPKGNFFVQKIEWMKNADGEDIDVAPHPQMTVYMPMKEDVEEFAMLRRKSSPNK | soluble |
| MKKVFDVWDVETAKRFLEIIKDEPIYYPALIALHTGMRAGEILSLKWCDVNFETRVISIVKSERKNRGLKTVNLKTKTSKRAVYMNDILYKELKNLYEITKPKPDDFVCPRLPTGNLTVNYLSRKFKKLVKKHNFPLIRFHDLRHTFATLMLSLGVNTKIVAEILGHSDIKLTADTYSHVLPTMQEEAMKEFVKLWKLEHHHHHH | soluble |
| MKKYDVIVVGAGISGLLAALTLSKHGKKVLVLEKGQHLGGNCNSYIVDGYQVDTGAHAITHLIEGPLPRLMDNYFDFLPVFEDYGYYYVRTENALIKVPSNLKDFVTFDVLPRKDRLILSQTLTKALTLSSFGIDLSDQSVYDFLPKNLCKDTYDFVNTISAFLSGKSMKETSAQRILSGSSFVRDSITQEQFDAMIGKFEPKKRQSTESILSSILPYHLHASLQARVDKVAQPFTSLERLATNKVNYSQGYPRKGLKALLNAILYSFPDTVEIKSECEVTGILVESEKVYGVEADEIYLADLIIYTGFATDLPELIKDLPQAYIEELKGIVHTKSLTIWLGLKEELPEFKYTGSEIWFKDFAYWAMPISNYDPSLAPKDKQLVGFSFVIDSEQTEEHELKKAYDTIFRALPNIEKYIDMQHEQIMIPEKAAVTINGKFSDIRTPVKNLYIAGTDTDRRSMGITRAAYSIIELLKILNEDGNLHLEHHHHHH | not soluble |
| MKKYTCTVCGYIYNPEDGDPDNGVNPGTDFKDIPDDWVCPLCGGGKDQFEEVEE | soluble |
| MKLEIFSWWAGDEGPALEALIRLYKQKYPGVEVINATVTGGAGVNARAVLKTRMLGGDPPDTFQVHAGMELIGTWVVANRMEDLSALFRQEGWLQAFPKGLIDLISYKGGIWSVPVNIHRSNVMWYLPAKLKGWGVNPPRTWDKFLATCQTLKQKGLEAPLALGENWTQQHLWESVALAVLGPDDWNNLWNGKLKFTDPKAVRAWEVFGRVLDCANKDAAGLSWQQAVDRVVQGKAAFNIMGDWAAGYMTTTLKLKPGTDFAWAPSPGTQGVFMMLSDSFGLPKGAKNRQNAINWLRLVGSKEGQDTSNPLKGSIAARLDSDPSKYNAYGQSAMRDWRSNRIVGSLVHGAVAPESFMSQFGTVMEIFLQTRNPQAAANAAQAIADQVGLGRLGQHHHHHH | soluble |
| MKLEYLIDQAAGQPKKTVAVAVAEDHEVIEAVAKAIKLQLAQFRLYGNQEKIMGMLQEHGLQTSEHVEVIAAMSSAEAAELSVKAVRNGEADVLMKGNIPTANILKAVLNKEWGLRKGSVLSHVAAFEVPNYDRLIFVTDAAMNIAPDVTQKAAIIQNTVEVARAIGIDLPKVAPIAAVEVVNPAMQATIDAAMLTQMNRRGQIKDCIVDGPLALDNAVSQIAAEHKGIVSDVAGKADILLVPTIEAGNVLYKSLVYFADAKVGAMIAGAKAPIVLTSRADSAETKVYSLALAVATASK | soluble |
